Measurements taken from patent US20130189225A1 (ASSOCIATION INSTITUT DE MYOLOGIE, published 2013).

T1: human C-reactive protein (CRP), native protein of human serum (human, UniProt P02741 19-224)
T1 construct: mature; also called human CRP; human homolog of CRP
T1 sequence: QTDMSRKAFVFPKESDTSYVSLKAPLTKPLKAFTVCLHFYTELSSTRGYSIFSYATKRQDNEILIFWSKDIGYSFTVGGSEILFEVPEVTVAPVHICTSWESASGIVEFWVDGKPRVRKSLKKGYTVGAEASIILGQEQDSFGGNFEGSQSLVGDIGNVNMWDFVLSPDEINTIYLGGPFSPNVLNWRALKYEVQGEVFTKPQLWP

T2: murine G3BP (mouse cyclophilin C-associated protein), native protein of mouse serum (mouse, UniProt Q07797 19-577)
T2 construct: also called G3BP murine protein homolog; CyCAP
T2 sequence: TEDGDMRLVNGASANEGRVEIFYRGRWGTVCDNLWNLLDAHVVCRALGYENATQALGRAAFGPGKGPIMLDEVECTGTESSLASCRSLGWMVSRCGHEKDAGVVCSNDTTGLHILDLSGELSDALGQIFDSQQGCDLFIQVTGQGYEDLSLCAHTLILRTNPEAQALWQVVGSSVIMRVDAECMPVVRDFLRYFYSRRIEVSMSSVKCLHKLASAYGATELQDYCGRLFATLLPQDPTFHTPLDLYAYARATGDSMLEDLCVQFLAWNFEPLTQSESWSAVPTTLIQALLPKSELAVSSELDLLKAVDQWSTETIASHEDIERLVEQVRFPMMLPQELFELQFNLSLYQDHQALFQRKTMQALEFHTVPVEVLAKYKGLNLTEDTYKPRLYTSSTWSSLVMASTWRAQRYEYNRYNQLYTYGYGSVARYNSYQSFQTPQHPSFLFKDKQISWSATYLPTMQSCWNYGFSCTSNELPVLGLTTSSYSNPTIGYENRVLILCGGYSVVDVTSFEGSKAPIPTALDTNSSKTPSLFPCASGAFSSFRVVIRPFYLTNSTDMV

B1: human galectin 3 binding protein (G3BP), native protein of human serum (other)
chain: VNDGDMRLADGGATNQGRVEIFYRGQWGTVCDNLWDLTDASVVCRALGFENATQALGRAAFGQGSGPIMLDEVQCTGTEASLADCKSLGWLKSNCRHERDAGVVCTNETRSTHTLDLSRELSEALGQIFDSQRGCDLSISVNVQGEDALGFCGHTVILTANLEAQALWKEPGSNVTMSVDAECVPMVRDLLRYFYSRRIDITLSSVKCFHKLASAYGARQLQGYCASLFAILLPQDPSFQMPLDLYAYAVATGDALLEKLCLQFLAWNFEALTQAEAWPSVPTDLLQLLLPRSDLAVPSELALLKAVDTWSWGERASHEEVEGLVEKIRFPMMLPEELFELQFNLSLYWSHEALFQKKTLQALEFHTVPFQLLARYKGLNLTEDTYKPRIYTSPTWSAFVTDSSWSARKSQLVYQSRRGPLVKYSSDYFQAPSDYRYYPYQSFQTPQHPSFLFQDKRVSWSLVYLPTIQSCWNYGFSCSSDELPVLGLTKSGGSDRTIAYENKALMLCEGLFVADVTDFEGWKAAIPSALDTNSSKSTSSFPCPAGHFNGFRTVIRPFYLTNSSGVD
notes: also called hu-G3BP; huG3BP
B2: rAAV-6 (recombinant adeno-associated virus vector with AAV-6 capsid) (other)
chain: MAADGYLPDWLEDNLSEGIREWWDLKPGAPKPKANQQKQDDGRGLVLPGYKYLGPFNGLDKGEPVNAADAAALEHDKAYDQQLKAGDNPYLRYNHADAEFQERLQEDTSFGGNLGRAVFQAKKRVLEPFGLVEEGAKTAPGKKRPVEQSPQEPDSSSGIGKTGQQPAKKRLNFGQTGDSESVPDPQPLGEPPATPAAVGPTTMASGGGAPMADNNEGADGVGNASGNWHCDSTWLGDRVITTSTRTWALPTYNNHLYKQISSASTGASNDNHYFGYSTPWGYFDFNRFHCHFSPRDWQRLINNNWGFRPKRLNFKLFNIQVKEVTTNDGVTTIANNLTSTVQVFSDSEYQLPYVLGSAHQGCLPPFPADVFMIPQYGYLTLNNGSQAVGRSSFYCLEYFPSQMLRTGNNFTFSYTFEDVPFHSSYAHSQSLDRLMNPLIDQYLYYLNRTQNQSGSAQNKDLLFSRGSPAGMSVQPKNWLPGPCYRQQRVSKTKTDNNNSNFTWTGASKYNLNGRESIINPGTAMASHKDDKDKFFPMSGVMIFGKESAGASNTALDNVMITDEEEIKATNPVATERFGTVAVNLQSSSTDPATGDVHVMGALPGMVWQDRDVYLQGPIWAKIPHTDGHFHPSPLMGGFGLKHPPPQILIKNTPVPANPPAEFSATKFASFITQYSTGQVSVEIEWELQKENSKRWNPEVQYTSNYAKSANVDFTVDNNGLYTEPRPIGTRYLTRPL

Experiments:
[1] = biological target: rAAV-2 (recombinant adeno-associated virus vector with AAV-2 capsid) (adeno-associated virus serotype 2, UniProt P03135 1-735); assay: rAAV immobilised on AVB-Sepharose beads incubated with seronegative human serum; Western blot for G3BP
[2] = biological target: B1; assay: surface plasmon resonance imagery, rAAV immobilised on glass prism, hu-G3BP injected
[3] = biological target: T1, human C-reactive protein (CRP), native …; assay: rAAV-6 immobilised on AVB-Sepharose incubated with human serum; PAGE and Western blot with human CRP specific antibodies
[4] = biological target: T2, murine G3BP (mouse cyclophilin …); assay: AAV6 incubated with seronegative murine serum, ultracentrifugation, 2D gel

Sequence of rAAV-2 (recombinant adeno-associated virus vector with AAV-2 capsid) (P03135 whole entry): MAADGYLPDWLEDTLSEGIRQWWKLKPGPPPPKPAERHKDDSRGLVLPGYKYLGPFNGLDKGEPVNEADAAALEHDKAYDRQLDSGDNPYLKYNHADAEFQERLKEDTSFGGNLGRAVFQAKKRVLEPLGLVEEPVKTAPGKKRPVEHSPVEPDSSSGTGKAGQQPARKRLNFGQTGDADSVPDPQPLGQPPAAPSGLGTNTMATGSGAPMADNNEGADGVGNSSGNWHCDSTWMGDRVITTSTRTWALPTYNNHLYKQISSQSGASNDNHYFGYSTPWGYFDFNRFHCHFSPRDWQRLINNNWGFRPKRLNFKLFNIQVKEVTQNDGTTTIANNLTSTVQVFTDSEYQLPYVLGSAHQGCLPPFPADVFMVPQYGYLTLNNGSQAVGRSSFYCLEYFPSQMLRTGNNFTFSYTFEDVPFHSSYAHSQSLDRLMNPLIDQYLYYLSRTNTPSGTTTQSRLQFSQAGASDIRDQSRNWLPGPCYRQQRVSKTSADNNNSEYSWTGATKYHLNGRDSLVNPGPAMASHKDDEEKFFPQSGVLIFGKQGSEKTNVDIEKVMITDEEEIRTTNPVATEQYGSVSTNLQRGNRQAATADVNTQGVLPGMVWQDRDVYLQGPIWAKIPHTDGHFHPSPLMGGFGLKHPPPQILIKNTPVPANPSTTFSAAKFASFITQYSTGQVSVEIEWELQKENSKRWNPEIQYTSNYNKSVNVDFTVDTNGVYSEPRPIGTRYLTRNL

B1
binding result [1]: no binding

B2
Ka [2]: ~1e+09 M⁻¹
binding result [3]: no binding
binding result [4]: no binding
